Results taken from patent US20250339569A1 (3B PHARMACEUTICALS, published 2025).
Starred links: 1 amine or outer side, 2 acyl side, 3 side chain; linkers in the order of their positions; H or OH if unused. Positions of bridges follow the written chain, without caps; N, C: chain ends. Non-standard residues stand in square brackets, D forms with d. Groups on a side chain read outwards from the residue. Primed or numbered codes have the meaning given here. No end group written: not given here. *: point of attachment. DOTA = O=C(O)CN1CCN(CC(=O)O)CCN(CC(=O)*)CCN(CC(=O)O)CC1; Trp(5-Cl) = N[C@@H](Cc1c[nH]c2ccc(Cl)cc12)C(=O)O; Trp(5-OH) = N[C@@H](Cc1c[nH]c2ccc(O)cc12)C(=O)O; Desaminotyrosyl = O=C(CCc1ccc(O)cc1)*; mXylylene = c1cc(C[*:1])cc(C[*:2])c1; Bta = N[C@@H](Cc1csc2ccccc12)C(=O)O; Tic = O=C(O)[C@@H]1Cc2ccccc2CN1; Isovaleryl = CC(C)CC(=O)*; Apr = not defined here; AEEA = NCCOCCOCC(=O)O; Aib = CC(C)(N)C(=O)O; Ttds″ = Ttds spacer; Sar = CNCC(=O)O

B1: 3BP-3049 (peptide)
peptide: Ac-VYCEGDWL[dT]WQC-NH2
modifications: linker 3-12 via mXylylene
SMILES: CC(=O)N[C@H](C(=O)N[C@@H](Cc1ccc(O)cc1)C(=O)N[C@H]1CSCc2cccc(c2)CSC[C@@H](C(N)=O)NC(=O)[C@H](CCC(N)=O)NC(=O)[C@H](Cc2c[nH]c3ccccc23)NC(=O)[C@@H]([C@H](C)O)NC(=O)[C@H](CC(C)C)NC(=O)[C@H](Cc2c[nH]c3ccccc23)NC(=O)[C@H](CC(=O)O)NC(=O)CNC(=O)[C@H](CCC(=O)O)NC1=O)C(C)C
notes: also called Ac-Val-Tyr-[Cys(3MeBn)-Glu-Gly-Asp-Trp-Leu-thr-Trp-Gln-Cys]-NH2
B2: 3BP-3572 (peptide)
peptide: Ac-V[Tic]CE[dP]DWLTWSC-NH2
modifications: linker 3-12 via mXylylene
SMILES: CC(=O)N[C@H](C(=O)N1Cc2ccccc2C[C@H]1C(=O)N[C@H]1CSCc2cccc(c2)CSC[C@@H](C(N)=O)NC(=O)[C@H](CO)NC(=O)[C@H](Cc2c[nH]c3ccccc23)NC(=O)[C@H]([C@@H](C)O)NC(=O)[C@H](CC(C)C)NC(=O)[C@H](Cc2c[nH]c3ccccc23)NC(=O)[C@H](CC(=O)O)NC(=O)[C@H]2CCCN2C(=O)[C@H](CCC(=O)O)NC1=O)C(C)C
notes: also called Ac-Val-Tic-[Cys(3MeBn)-Glu-pro-Asp-Trp-Leu-Thr-Trp-Ser-Cys]-NH2
B3: 3BP-3328 (peptide)
peptide: VYCEGDWLTWQC-NH2
modifications: linker 3-12 via mXylylene; not fully specified (N-terminus); also: indium complexed by DOTA
B4: 3BP-3741 (peptide)
peptide: Isovaleryl-RCE[dP]DWLTWE([Apr-AEEA-DOTA])C-NH2
modifications: linker 2-11 via 3MeBn; reading uncertain
notes: also called Iva-Arg-[Cys(3MeBn)-Glu-pro-Asp-Trp-Leu-Thr-Trp-Glu(NH-Apr-O2Oc-DOTA′)-Cys]-NH2
B5: 3BP-3871 (peptide)
peptide: Isovaleryl-DCE[dP]DWLTWE([Apr-AEEA-DOTA])C-NH2
modifications: linker 2-11 via mXylylene; reading uncertain
notes: also called Iva-Asp-[Cys(3MeBn)-Glu-pro-Asp-Trp-Leu-Thr-Trp-Glu(NH-Apr-O2Oc-DOTA′)-Cys]-NH2
B6: 3BP-3872 (peptide)
peptide: Isovaleryl-ECE[dP]DWLTWE([Apr-AEEA-DOTA])C-NH2
modifications: linker 2-11 via mXylylene; reading uncertain
notes: also called Iva-Glu-[Cys(3MeBn)-Glu-pro-Asp-Trp-Leu-Thr-Trp-Glu(NH-Apr-O2Oc-DOTA′)-Cys]-NH2
B7: 3BP-3045 (peptide)
peptide: Ac-VYC[dE]GDWLTWQC-NH2
modifications: linker 3-12 via mXylylene
SMILES: CC(=O)N[C@H](C(=O)N[C@@H](Cc1ccc(O)cc1)C(=O)N[C@H]1CSCc2cccc(c2)CSC[C@@H](C(N)=O)NC(=O)[C@H](CCC(N)=O)NC(=O)[C@H](Cc2c[nH]c3ccccc23)NC(=O)[C@H]([C@@H](C)O)NC(=O)[C@H](CC(C)C)NC(=O)[C@H](Cc2c[nH]c3ccccc23)NC(=O)[C@H](CC(=O)O)NC(=O)CNC(=O)[C@@H](CCC(=O)O)NC1=O)C(C)C
B8: 3BP-3502 (peptide)
peptide: Ac-VYCE[dP]DW[Aib]TWAC-NH2
modifications: linker 3-12 via mXylylene
SMILES: CC(=O)N[C@H](C(=O)N[C@@H](Cc1ccc(O)cc1)C(=O)N[C@H]1CSCc2cccc(c2)CSC[C@@H](C(N)=O)NC(=O)[C@H](C)NC(=O)[C@H](Cc2c[nH]c3ccccc23)NC(=O)[C@H]([C@@H](C)O)NC(=O)C(C)(C)NC(=O)[C@H](Cc2c[nH]c3ccccc23)NC(=O)[C@H](CC(=O)O)NC(=O)[C@H]2CCCN2C(=O)[C@H](CCC(=O)O)NC1=O)C(C)C
notes: also called Ac-Val-Tyr-[Cys(3MeBn)-Glu-pro-Asp-Trp-Aib-Thr-Trp-Ala-Cys]-NH2
B9: 3BP-3048 (peptide)
peptide: Ac-VYCEGDW[dL]TWQC-NH2
modifications: linker 3-12 via mXylylene
SMILES: CC(=O)N[C@H](C(=O)N[C@@H](Cc1ccc(O)cc1)C(=O)N[C@H]1CSCc2cccc(c2)CSC[C@@H](C(N)=O)NC(=O)[C@H](CCC(N)=O)NC(=O)[C@H](Cc2c[nH]c3ccccc23)NC(=O)[C@H]([C@@H](C)O)NC(=O)[C@@H](CC(C)C)NC(=O)[C@H](Cc2c[nH]c3ccccc23)NC(=O)[C@H](CC(=O)O)NC(=O)CNC(=O)[C@H](CCC(=O)O)NC1=O)C(C)C
notes: also called Ac-Val-Tyr-[Cys(3MeBn)-Glu-Gly-Asp-Trp-leu-Thr-Trp-Gln-Cys]-NH2
B10: 3BP-3061 (peptide)
peptide: Ac-VYCEG[Aib]WLTWQC-NH2
modifications: linker 3-12 via mXylylene
SMILES: CC(=O)N[C@H](C(=O)N[C@@H](Cc1ccc(O)cc1)C(=O)N[C@H]1CSCc2cccc(c2)CSC[C@@H](C(N)=O)NC(=O)[C@H](CCC(N)=O)NC(=O)[C@H](Cc2c[nH]c3ccccc23)NC(=O)[C@H]([C@@H](C)O)NC(=O)[C@H](CC(C)C)NC(=O)[C@H](Cc2c[nH]c3ccccc23)NC(=O)C(C)(C)NC(=O)CNC(=O)[C@H](CCC(=O)O)NC1=O)C(C)C
notes: also called Ac-Val-Tyr-[Cys(3MeBn)-Glu-Gly-Aib-Trp-Leu-Thr-Trp-Gln-Cys]-NH2
B11: 3BP-3047 (peptide)
peptide: Ac-VYCEG[dD]WLTWQC-NH2
modifications: linker 3-12 via mXylylene
SMILES: CC(=O)N[C@H](C(=O)N[C@@H](Cc1ccc(O)cc1)C(=O)N[C@H]1CSCc2cccc(c2)CSC[C@@H](C(N)=O)NC(=O)[C@H](CCC(N)=O)NC(=O)[C@H](Cc2c[nH]c3ccccc23)NC(=O)[C@H]([C@@H](C)O)NC(=O)[C@H](CC(C)C)NC(=O)[C@H](Cc2c[nH]c3ccccc23)NC(=O)[C@@H](CC(=O)O)NC(=O)CNC(=O)[C@H](CCC(=O)O)NC1=O)C(C)C
notes: also called Ac-Val-Tyr-[Cys(3MeBn)-Glu-Gly-asp-Trp-Leu-Thr-Trp-Gln-Cys]-NH2
B12: 3BP-3315 (peptide)
peptide: Ac-VYCE[Sar]DWLT[Bta]QC-NH2
modifications: linker 3-12 via mXylylene
SMILES: CC(=O)N[C@H](C(=O)N[C@@H](Cc1ccc(O)cc1)C(=O)N[C@H]1CSCc2cccc(c2)CSC[C@@H](C(N)=O)NC(=O)[C@H](CCC(N)=O)NC(=O)[C@H](Cc2csc3ccccc23)NC(=O)[C@H]([C@@H](C)O)NC(=O)[C@H](CC(C)C)NC(=O)[C@H](Cc2c[nH]c3ccccc23)NC(=O)[C@H](CC(=O)O)NC(=O)CN(C)C(=O)[C@H](CCC(=O)O)NC1=O)C(C)C
notes: also called Ac-Val-Tyr-[Cys(3MeBn)-Glu-Nmg-Asp-Trp-Leu-Thr-Bta-Gln-Cys]-NH2
B13: 3BP-3312 (peptide)
peptide: Ac-VYCE[Sar]DWLT[Trp(5-Cl)]QC-NH2
modifications: linker 3-12 via mXylylene
SMILES: CC(=O)N[C@H](C(=O)N[C@@H](Cc1ccc(O)cc1)C(=O)N[C@H]1CSCc2cccc(c2)CSC[C@@H](C(N)=O)NC(=O)[C@H](CCC(N)=O)NC(=O)[C@H](Cc2c[nH]c3ccc(Cl)cc23)NC(=O)[C@H]([C@@H](C)O)NC(=O)[C@H](CC(C)C)NC(=O)[C@H](Cc2c[nH]c3ccccc23)NC(=O)[C@H](CC(=O)O)NC(=O)CN(C)C(=O)[C@H](CCC(=O)O)NC1=O)C(C)C
notes: also called Ac-Val-Tyr-[Cys(3MeBn)-Glu-Nmg-Asp-Trp-Leu-Thr-5Clw-Gln-Cys]-NH2
B14: 3BP-3310 (peptide)
peptide: Ac-VYCE[Sar]D[Trp(5-OH)]LTWQC-NH2
modifications: linker 3-12 via mXylylene
SMILES: CC(=O)N[C@H](C(=O)N[C@@H](Cc1ccc(O)cc1)C(=O)N[C@H]1CSCc2cccc(c2)CSC[C@@H](C(N)=O)NC(=O)[C@H](CCC(N)=O)NC(=O)[C@H](Cc2c[nH]c3ccccc23)NC(=O)[C@H]([C@@H](C)O)NC(=O)[C@H](CC(C)C)NC(=O)[C@H](Cc2c[nH]c3ccc(O)cc23)NC(=O)[C@H](CC(=O)O)NC(=O)CN(C)C(=O)[C@H](CCC(=O)O)NC1=O)C(C)C
notes: also called Ac-Val-Tyr-[Cys(3MeBn)-Glu-Nmg-Asp-Hyw-Leu-Thr-Trp-Gln-Cys]-NH2
B15: 3BP-3053 (peptide)
peptide: Ac-VYCEGAWLTWQC-NH2
modifications: linker 3-12 via mXylylene
SMILES: CC(=O)N[C@H](C(=O)N[C@@H](Cc1ccc(O)cc1)C(=O)N[C@H]1CSCc2cccc(c2)CSC[C@@H](C(N)=O)NC(=O)[C@H](CCC(N)=O)NC(=O)[C@H](Cc2c[nH]c3ccccc23)NC(=O)[C@H]([C@@H](C)O)NC(=O)[C@H](CC(C)C)NC(=O)[C@H](Cc2c[nH]c3ccccc23)NC(=O)[C@H](C)NC(=O)CNC(=O)[C@H](CCC(=O)O)NC1=O)C(C)C
B16: 3BP-3278 (peptide)
peptide: {DOTA-Ttds″}-VYCE[Sar]DWLTWAC-NH2
modifications: linker 3-12 via mXylylene; not fully specified
notes: also called DOTA-Ttds-Val-Tyr-[Cys(3MeBn)-Glu-Nmg-Asp-Trp-Leu-Thr-Trp-Ala-Cys]-NH2
B17: 3BP-3056 (peptide)
peptide: Ac-VYCEGDWLAWQC-NH2
modifications: linker 3-12 via mXylylene
SMILES: CC(=O)N[C@H](C(=O)N[C@@H](Cc1ccc(O)cc1)C(=O)N[C@H]1CSCc2cccc(c2)CSC[C@@H](C(N)=O)NC(=O)[C@H](CCC(N)=O)NC(=O)[C@H](Cc2c[nH]c3ccccc23)NC(=O)[C@H](C)NC(=O)[C@H](CC(C)C)NC(=O)[C@H](Cc2c[nH]c3ccccc23)NC(=O)[C@H](CC(=O)O)NC(=O)CNC(=O)[C@H](CCC(=O)O)NC1=O)C(C)C
B18: 3BP-3731 (peptide)
peptide: Desaminotyrosyl-CE[dP]DWLTWSC-NH2
modifications: linker 1-10 via 3MeBn
notes: also called 4OHPhp-[Cys(3MeBn)-Glu-pro-Asp-Trp-Leu-Thr-Trp-Ser-Cys]-NH2

How the values were obtained:
[1] = target: T1, human carbonic anhydrase 9 (CAIX) (human, UniProt Q16790 38-459); assay: FACS competition on HT-29 cells against tracer 3BP-2776; pIC50 category C = pIC50 6.1-7.0
Procedure: (§1) CAIX-expressing human HT-29 colorectal cancer cells (DSMZ, RRID: CVCL_0320) were cultured in McCoys's 5A modified medium (Biochrom, #F1015) including 10% fetal calf serum (FCS), 2 mM L-glutamine, 100 U/ml penicillin and 100 μg/mL streptomycin. Cells were detached with Accutase (Biolegend, #423201) and washed in FACS buffer (PBS including 1% FCS). Cells were diluted in FACS buffer to a final concentration of 500.000 cells per ml. 200 μL of the cell suspension were transferred to a u-shaped non-binding 96-well plate (Greiner) and cells were washed in ice-cold FACS buffer.
(§2) When biotinylated compounds were used an additional incubation step with 1 μg/mL APC-Streptavidin (Miltenyi; #130-106-791) in 50 μL FACS buffer for 30 minutes on ice was performed.
(§3) Cells were washed twice with ice-cold FACS buffer and analyzed in an Attune NxT flow cytometer (Thermo Fisher). Median fluorescence intensities (MFI) of the APC/Cy5-channel were calculated by Attune NxT software.

[2] = target: T1, human carbonic anhydrase 9 (CAIX); assay: FACS competition on HT-29 cells against tracer 3BP-2776; pIC50 category B = pIC50 7.1-8.0
Procedure: as §1, §2, §3

Binder	pIC50 [1] [pic50]	pIC50 [2] [pic50]
B1	6.1 to 7	
B2		7.1 to 8
B3		7.1 to 8
B4		7.1 to 8
B5		7.1 to 8
B6		7.1 to 8
B7	6.1 to 7	
B8		7.1 to 8
B9	6.1 to 7	
B10	6.1 to 7	
B11	6.1 to 7	
B12	6.1 to 7	
B13	6.1 to 7	
B14	6.1 to 7	
B15		7.1 to 8
B16		7.1 to 8
B17		7.1 to 8
B18		7.1 to 8
